Laboratory results published in patent US20100068766A1 (WASEDA UNIVERSITY, published 2010).

B1: human Ev1 protein (NCBI accession No. AAF21709) (other, UniProt Q9UI08-2 1-418, looked up)
chain: MATSEQSICQARASVMVYDDTSKKWVPIKPGQQGFSRINIYHNTASNTFRVVGVKLQDQQVVINYSIVKGLKYNQATPTFHQWRDARQVYGLNFASKEEATTFSNAMLFALNIMNSQEGGPSSQRQVQNGPSPDEMDIQRRQVMEQHQQQRQESLERRTSATGPILPPGHPSSAASAPVSCSGPPPPPPPPVPPPPTGATPPPPPPLPAGGAQGSSHDESSMSGLAAAIAGAKLRRVQRPEDASGGSSPSGTSKSDANRASSGGGGGGLMEEMNKLLAKRRKAASQSDKPAEKKEDESQMEDPSTSPSPGTRAASQPPNSSEAGRKPWERSNSVEKPVSSILSRTPSVAKSPEAKSPLQSQPHSRMKPAGSVNDMALDAFDLDRMKQEILEEVVRELHKVKEEIIDAIRQELSGISTT
notes: range 1-418; His tag removed by thrombin; By gel filtration it eluted at approximately 600 kDa (approximately 13-mer multimer); In the pull-down it was either coupled covalently to Affi-Gel 10 beads or free in solution; also called entire-length Ev1 protein; His-Ev1 (before the tag was removed)
B2: Rad51B protein (other, UniProt O15315-1 1-350, looked up)
chain: MGSKKLKRVGLSQELCDRLSRHQILTCQDFLCLSPLELMKVTGLSYRGVHELLCMVSRACAPKMQTAYGIKAQRSADFSPAFLSTTLSALDEALHGGVACGSLTEITGPPGCGKTQFCIMMSILATLPTNMGGLEGAVVYIDTESAFSAERLVEIAESRFPRYFNTEEKLLLTSSKVHLYRELTCDEVLQRIESLEEEIISKGIKLVILDSVASVVRKEFDAQLQGNLKERNKFLAREASSLKYLAEEFSIPVILTNQITTHLSGALASQADLVSPADDLSLSEGTSGSSCVIAALGNTWSHSVNTRLILQYLDSERRQILIAKSPLAPFTSFVYTIKEEGLVLQAYGNS
notes: In the pull-down it was either coupled to Affi-Gel 10 beads or free in solution

Legend:
[1] = biological target: the molecule itself; assay: inferred from the pull-down on Rad51B-bound beads; gel filtration (approximately 600 kDa)
[2] = biological target: B1; assay: pull-down, Ev1 coupled to Affi-Gel 10 beads, SDS-PAGE, Coomassie stain
Protocol: Thereafter, the obtained mixture was incubated at 4° C. overnight. The Affi-Gel 10-Ev1 beads were washed 3 times with 500 μl of washing buffer 1 (20 mM potassium phosphate (pH 8.5), 30% glycerol, 700 mM NaCl, 5 mM 2-mercaptoethanol, and 0.05% Triton X-100). The Affi-Gel 10-Rad51B beads were washed 3 times with washing buffer 2 (20 mM HEPES-NaOH (pH 7.3), 30% glycerol, 90 mM NaCl, 2 mM 2-mercaptoethanol, 0.1% Triton X-100, 2 mM ammonium sulfate, and 0.1 mM EDTA). Thereafter, a 50% suspension of such Affi-Gel 10-protein was prepared, and it was then preserved at 4° C.
In order to carry out a binding assay, an Affi-Gel 10-protein suspension (30 μl) was incubated with 10 μg of an Ev1 or Rad51B protein at room temperature for 150 minutes. Affi-Gel 10-Ev1 beads were washed 4 times with 100 μl of buffer 1 (20 mM potassium phosphate (pH 8.5), 30% glycerol, 700 mM NaCl, 5 mM 2-mercaptoethanol, and 0.3% Triton X-100). Affi-Gel 10-Rad51B beads were washed 4 times with 100 μl of buffer 2 (20 mM HEPES-NaOH (pH 7.3), 30% glycerol, 90 mM NaCl, 2 mM 2-mercaptoethanol, 2 mM ammonium sulfate, 0.1 mM EDTA, and 0.35% Triton X-100). An SDS-PAGE sample treatment buffer (2×) was directly mixed with the washed beads, and the obtained mixture was then subjected to a heat treatment at 100° C. for 2 minutes. […]

stoichiometric ratio [2] | Binder | binding result [1]
– | B1 | binds
1 Rad51B:Ev1 (1:1) | B2 | –
